# Assay results from publication PMC3032006.
# Where two headings read alike, the source gives them in different places.
# Columns and labels:
# Test in all cases: AUC
# [1] = target: myr(+)MACA-W184A/M185A (HIV-1 (pNL4-3 isolate))
# [2] = target: myr(+)MACA-W184A/M185A (HIV-1 (pNL4-3 isolate)); remark: listed apart in the source
# [3] = target: myristoylated HIV-1 matrix protein, myr(+)MA (HIV-1)
# [4] = target: myristoylated HIV-1 matrix protein, myr(+)MA (HIV-1); remark: listed apart in the source
# [5] = target: myristoylated HIV-1 matrix protein, myr(+)MA (HIV-1); remark: listed apart in the source
# [6] = target: myristoylated HIV-1 matrix-capsid, myr(+)MACA (HIV-1 (pNL4-3 isolate))
# [7] = target: myristoylated HIV-1 matrix-capsid, myr(+)MACA (HIV-1 (pNL4-3 isolate)); remark: listed apart in the source
# [8] = target: myristoylated HIV-1 matrix-capsid, myr(+)MACA (HIV-1 (pNL4-3 isolate)); remark: listed apart in the source
# [9] = target: myristoylated HIV-1 matrix-capsid, myr(+)MACA (HIV-1 (pNL4-3 isolate)); remark: listed apart in the source
# [10] = target: unmyristoylated HIV-1 matrix-capsid, myr(−)MACA (HIV-1 (pNL4-3 isolate))
# [11] = target: unmyristoylated HIV-1 matrix-capsid, myr(−)MACA (HIV-1 (pNL4-3 isolate)); remark: listed apart in the source
# [12] = target: unmyristoylated HIV-1 matrix-capsid, myr(−)MACA (HIV-1 (pNL4-3 isolate)); remark: listed apart in the source
substance,measurement,setting,value
myr(+)MACA-W184A/M185A (domain or fragment),stoichiometry N,[1],2
same,stoichiometry N,[2],2
"myristoylated HIV-1 matrix protein, myr(+)MA (natural protein)",fraction in the 2.4S (trimer) peak of c(s),[3],30%
same,stoichiometry N,[3],3
same,stoichiometry N,[4],3
same,stoichiometry N,[5],3
"myristoylated HIV-1 matrix-capsid, myr(+)MACA (domain or fragment)",Ka,[6],33000 M⁻¹
same,fraction in the 4.3S (major) peak of c(s),[6],70%
same,stoichiometry N,[6],2
same,stoichiometry N,[7],3
same,stoichiometry N,[8],3
same,stoichiometry N,[9],3
"unmyristoylated HIV-1 matrix-capsid, myr(−)MACA (domain or fragment)",stoichiometry N,[10],2
same,Ka,[11],110000 M⁻¹
same,stoichiometry N,[11],2
same,Ka,[12],33000 M⁻¹
same,stoichiometry N,[12],2
